Data reported in the supplement of paper PMC5998384.

How the values were obtained:
[1] = tested on: HeLa Kyoto; experiment: thermal stability score vs G1/S (z-score of summed log2 fold changes over temperatures); higher = more thermally stable than in G1/S
[2] = tested on: HeLa Kyoto; experiment: solubility in G1/S (NP-40 vs SDS abundance) (log2 ratio); higher = more soluble; details: cell cycle stage: G1/S
[3] = tested on: HeLa Kyoto; experiment: melting temperature (median over replicates), in situ; higher = more thermally stable
[4] = tested on: HeLa Kyoto; experiment: solubility change mitosis vs G1/S (difference of NP-40 vs SDS log2 ratios) (log2 ratio difference); higher = more soluble in mitosis
[5] = cell cycle stage: early G1 (4.5 h after nocodazole release)
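Throughout, for melting temperature (median over replicates), in situ: HeLa Kyoto cells synchronized by double thymidine or nocodazole block, proteins quantified by TMT10plex mass spectrometry, three independent biological replicates.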
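Throughout, for solubility change mitosis vs G1/S (difference of NP-40 vs SDS log2 ratios): synchronized HeLa Kyoto cells (double thymidine block for G1/S, nocodazole release for mitosis), protein amounts in NP-40 versus SDS lysates quantified by mass spectrometry, three biological replicates.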
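Throughout, for solubility in G1/S (NP-40 vs SDS abundance): HeLa Kyoto cells arrested at G1/S by double thymidine block, proteins quantified by TMT10plex mass spectrometry in mild NP-40 versus SDS extracts, three biological replicates.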
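Throughout, for thermal stability score vs G1/S (z-score of summed log2 fold changes over temperatures): synchronized HeLa Kyoto cells, proteins quantified by TMT10plex mass spectrometry, three biological replicates, mitosis taken 0.5 h after nocodazole release, G1/S directly after double thymidine block.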

Sequence	thermal stability score [1, 5]	thermal stability score ([1]; cell cycle stage: mitosis)	solubility in G1/S (log2) [2]	melting temperature ([3]; cell cycle stage: G1/S)	melting temperature ([3]; cell cycle stage: mitosis)	solubility change mitosis (log2) [4]
MEDPTLYIVERPLPGYPDAEAPEPSSAGAQAAEEPSGAGSEELIKSDQVNGVLVLSLLDKIIGAVDQIQLTQAQLEERQAEMEGAVQSIQGELSKLGKAHATTSNTVSKLLEKVRKVSVNVKTVRGSLERQAGQIKKLEVNEAELLRRRNFKVMIYQDEVKLPAKLSISKSLKESEALPEKEGEELGEGERPEEDAAALELSSDEAVEVEEVIEESRAERIKRSGLRRVDDFKKAFSKEKMEKTKVRTRENLEKTRLKTKENLEKTRHTLEKRMNKLGTRLVPAERREKLKTSRDKLRKSFTPDHVVYARSKTAVYKVPPFTFHVKKIREGQVEVLKATEMVEVGADDDEGGAERGEAGDLRRGSSPDVHALLEITEESDAVLVDKSDSD [PTRF]	-3.64	-4.73	-0.215	54.4 °C	52.4 °C	0.094
MAEARKRRELLPLIYHHLLRAGYVRAAREVKEQSGQKCFLAQPVTLLDIYTHWQQTSELGRKRKAEEDAALQAKKTRVSDPISTSESSEEEEEAEAETAKATPRLASTNSSVLGADLPSSMKEKAKAETEKAGKTGNSMPHPATGKTVANLLSGKSPRKSAEPSANTTLVSETEEEGSVPAFGAAAKPGMVSAGQADSSSEDTSSSSDETDVEGKPSVKPAQVKASSVSTKESPARKAAPAPGKVGDVTPQVKGGALPPAKRAKKPEEESESSEEGSESEEEAPAGTRSQVKASEKILQVRAASAPAKGTPGKGATPAPPGKAGAVASQTKAGKPEEDSESSSEESSDSEEETPAAKALLQAKASGKTSQVGAASAPAKESPRKGAAPAPPGKTGPAVAKAQAGKREEDSQSSSEESDSEEEAPAQAKPSGKAPQVRAASAPAKESPRKGAAPAPPRKTGPAAAQVQVGKQEEDSRSSSEESDSDREALAAMNAAQVKPLGKSPQVKPASTMGMGPLGKGAGPVPPGKVGPATPSAQVGKWEEDSESSSEESSDSSDGEVPTAVAPAQEKSLGNILQAKPTSSPAKGPPQKAGPVAVQVKAEKPMDNSESSEESSDSADSEEAPAAMTAAQAKPALKIPQTKACPKKTNTTASAKVAPVRVGTQAPRKAGTATSPAGSSPAVAGGTQRPAEDSSSSEESDSEEEKTGLAVTVGQAKSVGKGLQVKAASVPVKGSLGQGTAPVLPGKTGPTVTQVKAEKQEDSESSEEESDSEEAAASPAQVKTSVKKTQAKANPAAARAPSAKGTISAPGKVVTAAAQAKQRSPSKVKPPVRNPQNSTVLARGPASVPSVGKAVATAAQAQTGPEEDSGSSEEESDSEEEAETLAQVKPSGKTHQIRAALAPAKESPRKGAAPTPPGKTGPSAAQAGKQDDSGSSSEESDSDGEAPAAVTSAQVIKPPLIFVDPNRSPAGPAATPAQAQAASTPRKARASESTARSSSSESEDEDVIPATQCLTPGIRTNVVTMPTAHPRIAPKASMAGASSSKESSRISDGKKQEGPATQVSKKNPASLPLTQAALKVLAQKASEAQPPVARTQPSSGVDSAVGTLPATSPQSTSVQAKGTNKLRKPKLPEVQQATKAPESSDDSEDSSDSSSGSEEDGEGPQGAKSAHTLGPTPSRTETLVEETAAESSEDDVVAPSQSLLSGYMTPGLTPANSQASKATPKLDSSPSVSSTLAAKDDPDGKQEAKPQQAAGMLSPKTGGKEAASGTTPQKSRKPKKGAGNPQASTLALQSNITQCLLGQPWPLNEAQVQASVVKVLTELLEQERKKVVDTTKESSRKGWESRKRKLSGDQPAARTPRSKKKKKLGAGEGGEASVSPEKTSTTSKGKAKRDKASGDVKEKKGKGSLGSQGAKDEPEEELQKGMGTVEGGDQSNPKSKKEKKKSDKRKKDKEKKEKKKKAKKASTKDSESPSQKKKKKKKKTAEQTV [TCOF1]	-3.49	-1.37	-0.327	53.2 °C	52.9 °C	0.223
MSDNPPRMEVCPYCKKPFKRLKSHLPYCKMIGPTIPTDQKVYQSKPATLPRAKKMKGPIKDLIKAKGKELETENEERNSKLVVDKPEQTVKTFPLPAVGLERAATTKADKDIKNPIQPSFKMLKNTKPMTTFQEETKAQFYASEKTSPKRELAKDLPKSGESRCNPSEAGASLLVGSIEPSLSNQDRKYSSTLPNDVQTTSGDLKLDKIDPQRQELLVKLLDVPTGDCHISPKNVSDGVKRVRTLLSNERDSKGRDHLSGVPTDVTVTETPEKNTESLILSLKMSSLGKIQVMEKQEKGLTLGVETCGSKGNAEKSMSATEKQERTVMSHGCENFNTRDSVTGKESQGERPHLSLFIPRETTYQFHSVSQSSSQSLASLATTFLQEKKAEAQNHHCVPDVKALMESPEGQLSLEPKSDSQFQASHTGCQSPLCSAQRHTPQSPFTNHAAAAGRKTLRSCMGLEWFPELYPGYLGLGVLPGKPQCWNAMTQKPQLISPQGERLSQVSLLERSSTHIRSLEPPAGLTTSNFSLMRLLGAVQKGWIRCNTTIRKSGFGGITMLFTGYFVLCCSWSFRRLKKLCRPLPWKSTVPPCIGVAKTTGDCRSKTCLD [C17ORF80]	-2.69	-2.84	0.0361	54.5 °C	54 °C	-0.00249
MDPNTIIEALRGTMDPALREAAERQLNEAHKSLNFVSTLLQITMSEQLDLPVRQAGVIYLKNMITQYWPDRETAPGDISPYTIPEEDRHCIRENIVEAIIHSPELIRVQLTTCIHHIIKHDYPSRWTAIVDKIGFYLQSDNSACWLGILLCLYQLVKNYEYKKPEERSPLVAAMQHFLPVLKDRFIQLLSDQSDQSVLIQKQIFKIFYALVQYTLPLELINQQNLTEWIEILKTVVNRDVPNETLQVEEDDRPELPWWKCKKWALHILARLFERYGSPGNVSKEYNEFAEVFLKAFAVGVQQVLLKVLYQYKEKQYMAPRVLQQTLNYINQGVSHALTWKNLKPHIQGIIQDVIFPLMCYTDADEELWQEDPYEYIRMKFDVFEDFISPTTAAQTLLFTACSKRKEVLQKTMGFCYQILTEPNADPRKKDGALHMIGSLAEILLKKKIYKDQMEYMLQNHVFPLFSSELGYMRARACWVLHYFCEVKFKSDQNLQTALELTRRCLIDDREMPVKVEAAIALQVLISNQEKAKEYITPFIRPVMQALLHIIRETENDDLTNVIQKMICEYSEEVTPIAVEMTQHLAMTFNQVIQTGPDEEGSDDKAVTAMGILNTIDTLLSVVEDHKEITQQLEGICLQVIGTVLQQHVLEFYEEIFSLAHSLTCQQVSPQMWQLLPLVFEVFQQDGFDYFTDMMPLLHNYVTVDTDTLLSDTKYLEMIYSMCKKVLTGVAGEDAECHAAKLLEVIILQCKGRGIDQCIPLFVEAALERLTREVKTSELRTMCLQVAIAALYYNPHLLLNTLENLRFPNNVEPVTNHFITQWLNDVDCFLGLHDRKMCVLGLCALIDMEQIPQVLNQVSGQILPAFILLFNGLKRAYACHAEHENDSDDDDEAEDDDETEELGSDEDDIDEDGQEYLEILAKQAGEDGDDEDWEEDDAEETALEGYSTIIDDEDNPVDEYQIFKAIFQTIQNRNPVWYQALTHGLNEEQRKQLQDIATLADQRRAAHESKMIEKHGGYKFSAPVVPSSFNFGGPAPGMN [IPO7]	1.18	3.75	-0.0648	52.7 °C	51.3 °C	-0.133
MAASRPLSRFWEWGKNIVCVGRNYADHVREMRSAVLSEPVLFLKPSTAYAPEGSPILMPAYTRNLHHELELGVVMGKRCRAVPEAAAMDYVGGYALCLDMTARDVQDECKKKGLPWTLAKSFTASCPVSAFVPKEKIPDPHKLKLWLKVNGELRQEGETSSMIFSIPYIISYVSKIITLEEGDIILTGTPKGVGPVKENDEIEAGIHGLVSMTFKVEKPEY [FAHD1]	-1.32	-1.65	0.144	53.5 °C	60 °C	-0.257
MEEASEGGGNDRVRNLQSEVEGVKNIMTQNVERILARGENLEHLRNKTEDLEATSEHFKTTSQKVARKFWWKNVKMIVLICVIVFIIILFIVLFATGAFS [VAMP8]	-3.17	-6.62	-0.136	57.8 °C	55.5 °C	0.136
MSLSDWHLAVKLADQPLTPKSILRLPETELGEYSLGGYSISFLKQLIAGKLQESVPDPELIDLIYCGRKLKDDQTLDFYGIQPGSTVHVLRKSWPEPDQKPEPVDKVAAMREFRVLHTALHSSSSYREAVFKMLSNKESLDQIIVATPGLSSDPIALGVLQDKDLFSVFADPNMLDTLVPAHPALVNAIVLVLHSVAGSAPMPGTDSSSRSMPSSSYRDMPGGFLFEGLSDDEDDFHPNTRSTPSSSTPSSRPASLGYSGAAGPRPITQSELATALALASTPESSSHTPTPGTQGHSSGTSPMSSGVQSGTPITNDLFSQALQHALQASGQPSLQSQWQPQLQQLRDMGIQDDELSLRALQATGGDIQAALELIFAGGAP [UBL7]	-0.52	-0.245	0.396	50.8 °C	50.8 °C	0.156
MAAPSAGSWSTFQHKELMAADRGRRILGVCGMHPHHQETLKKNRVVLAKQLLLSELLEHLLEKDIITLEMRELIQAKVGSFSQNVELLNLLPKRGPQAFDAFCEALRETKQGHLEDMLLTTLSGLQHVLPPLSCDYDLSLPFPVCESCPLYKKLRLSTDTVEHSLDNKDGPVCLQVKPCTPEFYQTHFQLAYRLQSRPRGLALVLSNVHFTGEKELEFRSGGDVDHSTLVTLFKLLGYDVHVLCDQTAQEMQEKLQNFAQLPAHRVTDSCIVALLSHGVEGAIYGVDGKLLQLQEVFQLFDNANCPSLQNKPKMFFIQACRGDETDRGVDQQDGKNHAGSPGCEESDAGKEKLPKMRLPTRSDMICGYACLKGTAAMRNTKRGSWYIEALAQVFSERACDMHVADMLVKVNALIKDREGYAPGTEFHRCKEMSEYCSTLCRHLYLFPGHPPT [CASP2]	0.766	3.33	0.0545	50.2 °C	51.5 °C	-0.0504
MSIMSYNGGAVMAMKGKNCVAIAADRRFGIQAQMVTTDFQKIFPMGDRLYIGLAGLATDVQTVAQRLKFRLNLYELKEGRQIKPYTLMSMVANLLYEKRFGPYYTEPVIAGLDPKTFKPFICSLDLIGCPMVTDDFVVSGTCAEQMYGMCESLWEPNMDPDHLFETISQAMLNAVDRDAVSGMGVIVHIIEKDKITTRTLKARMD [PSMB3]	-1.89	-1.25	0.275	59.9 °C	62.6 °C	-0.241
MSKRHRLDLGEDYPSGKKRAGTDGKDRDRDRDREDRSKDRDRERDRGDREREREKEKEKELRASTNAMLISAGLPPLKASHSAHSTHSAHSTHSTHSAHSTHAGHAGHTSLPQCINPFTNLPHTPRYYDILKKRLQLPVWEYKDRFTDILVRHQSFVLVGETGSGKTTQIPQWCVEYMRSLPGPKRGVACTQPRRVAAMSVAQRVADEMDVMLGQEVGYSIRFEDCSSAKTILKYMTDGMLLREAMNDPLLERYGVIILDEAHERTLATDILMGVLKEVVRQRSDLKVIVMSATLDAGKFQIYFDNCPLLTIPGRTHPVEIFYTPEPERDYLEAAIRTVIQIHMCEEEEGDLLLFLTGQEEIDEACKRIKREVDDLGPEVGDIKIIPLYSTLPPQQQQRIFEPPPPKKQNGAIGRKVVVSTNIAETSLTIDGVVFVIDPGFAKQKVYNPRIRVESLLVTAISKASAQQRAGRAGRTRPGKCFRLYTEKAYKTEMQDNTYPEILRSNLGSVVLQLKKLGIDDLVHFDFMDPPAPETLMRALELLNYLAALNDDGDLTELGSMMAEFPLDPQLAKMVIASCDYNCSNEVLSITAMLSVPQCFVRPTEAKKAADEAKMRFAHIDGDHLTLLNVYHAFKQNHESVQWCYDNFINYRSLMSADNVRQQLSRIMDRFNLPRRSTDFTSRDYYINIRKALVTGYFMQVAHLERTGHYLTVKDNQVVQLHPSTVLDHKPEWVLYNEFVLTTKNYIRTCTDIKPEWLVKIAPQYYDMSNFPQCEAKRQLDRIIAKLQSKEYSQY [DHX15]	0.104	1.61	-0.42	53.9 °C	53.7 °C	0.272
